Data from paper PMC6415305 (Molecular cell, 2019).

Target: Recombinant His-tagged S6K1 T389E/S424D/S429D (S6K1*), in vitro translated (human, UniProt P23443-2 1-502, T389E | S424D | S429D)
Test: SPR

Chain of Recombinant His-tagged S6K1 T389E/S424D/S429D (S6K1*), in vitro translated (P23443 24-525 T412E/S447D/S452D): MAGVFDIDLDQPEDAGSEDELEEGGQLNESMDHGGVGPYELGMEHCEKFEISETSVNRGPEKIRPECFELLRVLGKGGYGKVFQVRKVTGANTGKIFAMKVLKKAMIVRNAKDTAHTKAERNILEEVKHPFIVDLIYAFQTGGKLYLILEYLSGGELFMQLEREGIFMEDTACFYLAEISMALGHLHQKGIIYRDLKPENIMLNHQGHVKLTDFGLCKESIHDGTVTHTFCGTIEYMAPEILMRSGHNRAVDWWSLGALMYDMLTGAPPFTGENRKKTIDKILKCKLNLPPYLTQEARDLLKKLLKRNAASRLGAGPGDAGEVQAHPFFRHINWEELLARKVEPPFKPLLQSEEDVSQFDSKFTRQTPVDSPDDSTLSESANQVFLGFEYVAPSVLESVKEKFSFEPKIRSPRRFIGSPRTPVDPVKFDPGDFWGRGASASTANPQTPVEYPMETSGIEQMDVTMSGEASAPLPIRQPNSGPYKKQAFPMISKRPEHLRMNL

Kd: 56 nM
B1: EPRS linker (Pro683 to Asn1023 of human glutamyl-prolyl tRNA synthetase), His tag removed (domain or fragment, UniProt P07814 683-1023, looked up)
chain: PYEPVSPYSCKEAPCVLIYIPDGHTKEMPTSGSKEKTKVEATKNETSAPFKERPTPSLNNNCTTSEDSLVLYNRVAVQGDVVRELKAKKAPKEDVDAAVKQLLSLKAEYKEKTGQEYKPGNPPAEIGQNISSNSSASILESKSLYDEVAAQGEVVRKLKAEKSPKAKINEAVECLLSLKAQYKEKTGKEYIPGQPPLSQSSDSSPTRNSEPAGLETPEAKVLFDKVASQGEVVRKLKTEKAPKDQVDIAVQELLQLKAQYKSLIGVEYKPVSATGAEDKDKKKKEKENKSEKQNKPQKQNDGQRKDPSKNQGGGLSSSGAGEGQGPKKQTRLGLEAKKEEN
